In test [1] the target is huTfR with mouse apical domain (human/mouse chimera) (UniProt P02786). The test can be described thus: ELISA on immobilized chimeric TfR.
Test [2] concerns the target chimeric TfR A02 (human/mouse chimera) (UniProt P02786). The test can be described thus: ELISA on immobilized chimeric TfR.
Test [3] deals with chimeric TfR A03 (human/mouse chimera) (UniProt P02786). The test can be described thus: ELISA on immobilized chimeric TfR.
Test [4] has as its target chimeric TfR A04 (human/mouse chimera) (UniProt P02786). The test can be described thus: ELISA on immobilized chimeric TfR.
Test [5] addresses chimeric TfR A14 (human/mouse chimera) (UniProt P02786). The test can be described thus: ELISA on immobilized chimeric TfR; grade = binding relative to His-huTfR (++ 0.5 or more, + 0.2 to less than 0.5).
The target in test [6] is huTfR with mouse protease-like domain (human/mouse chimera). The description is as above.
Chain of huTfR with mouse protease-like domain (human/mouse chimera) (chain, as listed by the source mutant limits assumed): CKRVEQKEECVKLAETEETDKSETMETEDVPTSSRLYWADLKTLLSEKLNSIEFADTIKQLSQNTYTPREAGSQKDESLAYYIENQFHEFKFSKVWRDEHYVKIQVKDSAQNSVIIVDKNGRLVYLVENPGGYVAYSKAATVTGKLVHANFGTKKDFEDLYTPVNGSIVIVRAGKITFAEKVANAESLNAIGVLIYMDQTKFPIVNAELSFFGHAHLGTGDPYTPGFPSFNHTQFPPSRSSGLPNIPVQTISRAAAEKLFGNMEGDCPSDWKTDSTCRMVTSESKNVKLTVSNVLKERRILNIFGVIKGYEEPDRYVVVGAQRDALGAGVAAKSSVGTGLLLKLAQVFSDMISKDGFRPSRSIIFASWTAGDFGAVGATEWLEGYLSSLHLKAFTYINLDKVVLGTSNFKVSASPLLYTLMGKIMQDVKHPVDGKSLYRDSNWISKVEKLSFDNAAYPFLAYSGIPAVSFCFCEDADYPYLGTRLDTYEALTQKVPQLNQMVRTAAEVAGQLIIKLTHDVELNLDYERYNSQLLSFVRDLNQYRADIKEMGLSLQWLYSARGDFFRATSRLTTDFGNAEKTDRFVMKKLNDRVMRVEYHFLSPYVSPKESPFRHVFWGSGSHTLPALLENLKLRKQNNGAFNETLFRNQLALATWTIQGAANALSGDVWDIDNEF
In test [7] the target is chimeric TfR A07 (human/mouse chimera) (UniProt P02786). The description is as above.
Chain of chimeric TfR A07 (human/mouse chimera) (P02786 other isoform, or with tags, fused parts or gaps mutant): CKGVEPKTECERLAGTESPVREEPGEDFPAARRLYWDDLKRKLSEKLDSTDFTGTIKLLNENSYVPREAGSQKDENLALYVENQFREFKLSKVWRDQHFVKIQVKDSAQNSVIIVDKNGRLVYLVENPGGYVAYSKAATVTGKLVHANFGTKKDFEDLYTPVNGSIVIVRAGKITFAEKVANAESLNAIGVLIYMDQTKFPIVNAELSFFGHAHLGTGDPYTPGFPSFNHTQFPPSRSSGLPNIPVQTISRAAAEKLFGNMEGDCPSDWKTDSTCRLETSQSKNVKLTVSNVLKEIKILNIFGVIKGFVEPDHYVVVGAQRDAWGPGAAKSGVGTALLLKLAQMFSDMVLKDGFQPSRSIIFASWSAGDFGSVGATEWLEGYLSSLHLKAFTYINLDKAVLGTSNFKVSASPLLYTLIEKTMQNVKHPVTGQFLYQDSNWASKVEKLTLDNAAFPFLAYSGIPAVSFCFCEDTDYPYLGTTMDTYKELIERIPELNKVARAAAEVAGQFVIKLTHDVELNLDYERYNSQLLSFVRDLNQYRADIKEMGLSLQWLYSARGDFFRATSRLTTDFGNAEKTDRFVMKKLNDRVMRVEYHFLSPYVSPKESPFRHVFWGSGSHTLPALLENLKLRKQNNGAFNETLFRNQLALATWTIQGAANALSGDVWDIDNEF
Test [8] concerns the target chimeric TfR A05 (human/mouse chimera) (UniProt P02786). The description is as above.
In test [9] the target is chimeric TfR A03 (human/mouse chimera) (UniProt P02786). Described as above.
Test [10] addresses chimeric TfR A04 (human/mouse chimera) (UniProt P02786). Described as above.

Where only a bound is given, the exact number is not on record here.

Chain of chimeric TfR A02 (human/mouse chimera) (P02786 other isoform, or with tags, fused parts or gaps mutant): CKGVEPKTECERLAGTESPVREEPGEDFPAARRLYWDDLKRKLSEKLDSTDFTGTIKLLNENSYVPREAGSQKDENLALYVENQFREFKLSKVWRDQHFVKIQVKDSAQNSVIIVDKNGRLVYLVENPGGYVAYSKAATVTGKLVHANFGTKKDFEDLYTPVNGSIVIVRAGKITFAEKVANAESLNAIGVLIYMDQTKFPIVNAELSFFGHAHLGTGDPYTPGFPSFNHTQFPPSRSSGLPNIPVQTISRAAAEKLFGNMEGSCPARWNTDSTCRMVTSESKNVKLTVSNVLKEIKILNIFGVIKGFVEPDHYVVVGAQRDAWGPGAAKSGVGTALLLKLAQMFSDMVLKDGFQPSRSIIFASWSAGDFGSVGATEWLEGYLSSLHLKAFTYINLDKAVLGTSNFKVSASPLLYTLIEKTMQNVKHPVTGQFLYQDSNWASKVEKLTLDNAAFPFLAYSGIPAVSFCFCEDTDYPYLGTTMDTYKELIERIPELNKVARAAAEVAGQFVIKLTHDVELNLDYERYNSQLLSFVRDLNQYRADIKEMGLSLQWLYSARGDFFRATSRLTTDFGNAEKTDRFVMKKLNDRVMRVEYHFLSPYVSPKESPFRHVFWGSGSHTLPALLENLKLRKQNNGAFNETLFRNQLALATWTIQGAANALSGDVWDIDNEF
Chain of chimeric TfR A03 (human/mouse chimera) (P02786 other isoform, or with tags, fused parts or gaps mutant): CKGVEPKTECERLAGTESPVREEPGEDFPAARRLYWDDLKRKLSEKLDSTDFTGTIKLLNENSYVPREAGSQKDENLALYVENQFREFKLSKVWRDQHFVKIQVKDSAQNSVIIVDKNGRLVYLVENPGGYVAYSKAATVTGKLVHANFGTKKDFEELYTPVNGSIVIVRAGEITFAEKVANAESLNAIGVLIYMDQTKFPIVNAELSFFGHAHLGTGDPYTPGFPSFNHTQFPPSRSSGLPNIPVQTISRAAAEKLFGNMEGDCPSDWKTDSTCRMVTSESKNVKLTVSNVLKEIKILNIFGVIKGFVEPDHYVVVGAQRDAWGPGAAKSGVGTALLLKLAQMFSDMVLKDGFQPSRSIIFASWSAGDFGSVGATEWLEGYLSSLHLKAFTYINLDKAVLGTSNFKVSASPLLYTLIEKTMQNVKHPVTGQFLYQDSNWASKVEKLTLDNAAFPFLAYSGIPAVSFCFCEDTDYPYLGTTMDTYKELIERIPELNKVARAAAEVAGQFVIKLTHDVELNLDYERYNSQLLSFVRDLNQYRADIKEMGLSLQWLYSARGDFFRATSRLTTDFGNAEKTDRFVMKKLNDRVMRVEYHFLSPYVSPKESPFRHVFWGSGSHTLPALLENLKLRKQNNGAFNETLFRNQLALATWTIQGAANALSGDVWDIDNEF
Chain of chimeric TfR A05 (human/mouse chimera) (P02786 other isoform, or with tags, fused parts or gaps mutant): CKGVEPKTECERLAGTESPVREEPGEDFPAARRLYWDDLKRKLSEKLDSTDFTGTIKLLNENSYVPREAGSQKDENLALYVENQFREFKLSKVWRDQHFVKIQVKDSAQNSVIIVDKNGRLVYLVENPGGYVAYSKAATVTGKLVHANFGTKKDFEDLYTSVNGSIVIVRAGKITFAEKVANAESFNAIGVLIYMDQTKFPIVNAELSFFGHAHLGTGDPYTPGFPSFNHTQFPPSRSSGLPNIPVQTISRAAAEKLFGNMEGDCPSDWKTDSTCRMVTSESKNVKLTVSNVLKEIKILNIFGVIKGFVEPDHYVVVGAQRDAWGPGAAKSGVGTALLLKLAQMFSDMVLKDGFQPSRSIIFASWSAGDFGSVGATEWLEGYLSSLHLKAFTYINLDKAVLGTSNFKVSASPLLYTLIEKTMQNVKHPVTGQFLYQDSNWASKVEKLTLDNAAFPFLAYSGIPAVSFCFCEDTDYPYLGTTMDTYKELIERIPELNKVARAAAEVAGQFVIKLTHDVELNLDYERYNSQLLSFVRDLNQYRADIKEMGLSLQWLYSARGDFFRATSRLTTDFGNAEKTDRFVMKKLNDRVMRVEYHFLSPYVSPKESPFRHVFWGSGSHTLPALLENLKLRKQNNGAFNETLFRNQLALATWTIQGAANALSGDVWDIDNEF
Chain of huTfR with mouse apical domain (human/mouse chimera) (P02786 other isoform, or with tags, fused parts or gaps mutant): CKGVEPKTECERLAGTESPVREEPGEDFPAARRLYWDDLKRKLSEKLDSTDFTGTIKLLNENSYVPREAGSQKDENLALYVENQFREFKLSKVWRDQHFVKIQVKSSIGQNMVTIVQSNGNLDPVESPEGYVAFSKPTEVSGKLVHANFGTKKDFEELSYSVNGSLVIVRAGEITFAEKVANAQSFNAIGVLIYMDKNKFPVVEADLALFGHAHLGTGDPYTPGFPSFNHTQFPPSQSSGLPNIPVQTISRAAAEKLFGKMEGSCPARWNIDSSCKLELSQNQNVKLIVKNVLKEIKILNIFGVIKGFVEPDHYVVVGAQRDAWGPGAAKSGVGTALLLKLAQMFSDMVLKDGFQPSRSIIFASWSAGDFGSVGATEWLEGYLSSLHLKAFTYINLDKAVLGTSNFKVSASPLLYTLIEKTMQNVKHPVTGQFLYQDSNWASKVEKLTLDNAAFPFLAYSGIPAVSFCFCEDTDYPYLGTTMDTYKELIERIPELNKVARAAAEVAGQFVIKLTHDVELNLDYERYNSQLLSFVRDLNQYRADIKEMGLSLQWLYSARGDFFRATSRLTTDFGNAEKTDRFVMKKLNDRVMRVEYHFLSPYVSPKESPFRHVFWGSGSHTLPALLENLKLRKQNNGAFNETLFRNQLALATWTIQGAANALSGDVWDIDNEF
Chain of chimeric TfR A04 (human/mouse chimera) (P02786 other isoform, or with tags, fused parts or gaps mutant): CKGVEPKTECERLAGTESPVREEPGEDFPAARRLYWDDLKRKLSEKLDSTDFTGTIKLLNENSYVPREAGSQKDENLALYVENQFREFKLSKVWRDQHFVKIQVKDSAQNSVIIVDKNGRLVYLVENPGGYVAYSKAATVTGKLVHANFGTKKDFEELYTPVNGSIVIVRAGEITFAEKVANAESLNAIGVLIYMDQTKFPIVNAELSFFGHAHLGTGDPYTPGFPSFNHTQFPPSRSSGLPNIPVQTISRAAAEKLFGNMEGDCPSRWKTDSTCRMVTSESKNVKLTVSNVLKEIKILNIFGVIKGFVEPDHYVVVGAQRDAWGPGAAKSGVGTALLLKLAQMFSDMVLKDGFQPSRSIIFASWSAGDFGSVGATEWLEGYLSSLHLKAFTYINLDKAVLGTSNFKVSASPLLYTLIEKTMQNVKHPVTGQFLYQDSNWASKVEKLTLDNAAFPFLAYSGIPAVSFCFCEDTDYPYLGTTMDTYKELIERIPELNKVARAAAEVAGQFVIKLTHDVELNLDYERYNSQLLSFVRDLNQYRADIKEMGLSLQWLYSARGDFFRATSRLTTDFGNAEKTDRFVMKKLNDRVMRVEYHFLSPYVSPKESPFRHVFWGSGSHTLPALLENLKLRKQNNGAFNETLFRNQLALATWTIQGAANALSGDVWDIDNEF

B1: 15G11v5 (antibody, from another filing, V domains shown)
VH: EVQLVQSGAEVKKPGASVKVSCKASGYTFTSYWMHWVRQAPGQRLEWIGEINPTNGRTNYIEKFKSRATLTVDKSASTAYMELSSLRSEDTAVYYCARGTRAYHYWGQGTMVTVSS
VL: DIQMTQSPSSLSASVGDRVTITCRASDNLYSNLAWYQQKPGKSPKLLVYDATNLADGVPSRFSGSGSGTDYTLTISSLQPEDFATYYCQHFWGTPLTFGQGTKVEIK
Consider B1, for which the ratio of ELISA binding activity (A450-A570) to chimeric TfR over that to His-huTfR in test [1] is less than 0.2; in test [2], less than 0.2; in test [3], less than 0.2; in test [4] it was less than 0.2; in test [5], greater than 0.5; in [6], greater than 0.5. In addition, the ratio of ELISA binding activity (A450-A570) to chimeric TfR over that to His-huTfR in test [7] is 0.2 to 0.5; in test [8], greater than 0.5.

B2: 7A4v15 (antibody, from another filing, V domains shown)
VH: EVQLVQSGAEVKKPGASVKVSCKGSGYTFTDYAMHWVRQAPGQGLEWMGGISTYFGRTNYNQKFKGRVTMTVDTSISTAYMELSRLRSDDTAVYYCARGLSGNYVMDYWGQGTTVTVSS
VL: DIVMTQSPDSLAVSLGERATINCRASESVDSYGNSFMHWYQQKPGQPPKLLIYRASNLESGVPDRFSGSGSRTDFTLTISSLQAEDVAVYYCQQSNEAPPTFGQGTKLEIK
With B2, the ratio of ELISA binding activity (A450-A570) to chimeric TfR over that to His-huTfR was less than 0.2 in [1]; less than 0.2 in [2]; greater than 0.5 in test [5]; greater than 0.5 in test [6]; 0.2 to 0.5 in test [7]; greater than 0.5 in [9]. For the same molecule, the ratio of ELISA binding activity (A450-A570) to chimeric TfR over that to His-huTfR in [10] is 0.2 to 0.5; in test [8], greater than 0.5.

B3: 16F6v4 (antibody, from another filing, V domains shown)
VH: EVQLVESGPGLVKPSETLSLTCTVSGNSITSEYAWNWIRQPPGKGLEWIGYISYSGTTSYNPSLKSRVTISRDTSKNQLSLKLSSVTAADTAVYYCARYGYGNPATRYFDVWGQGTLVTVSS
VL: DIQMTQSPSSLSASVGDRVTITCRASKSISKYLAWYQQKPGKTNKLLLYSGSTLQSGVPSRFSGSGSGTDYTLTISSLQPEDFATYYCQQHNEYPWTFGQGTKVEIK
On to B3, for which the ratio of ELISA binding activity (A450-A570) to chimeric TfR over that to His-huTfR in [1] was less than 0.2; in test [2], less than 0.2; in [5] it was greater than 0.5; in test [6], greater than 0.5; in [7], greater than 0.5; in [9] it was greater than 0.5. The ratio of ELISA binding activity (A450-A570) to chimeric TfR over that to His-huTfR in test [10] was 0.2 to 0.5; in test [8] it was greater than 0.5.

The values are drawn from patent US20220017635A1.
